Measurements reported in publication PMC6689322 (Journal of structural biology, 2019).
Blank lines part the entries; values can stand above or below the molecule they belong to.

Tests used:
[1] = molecular target: ArsR As(III)-responsive transcriptional repressor from Corynebacterium glutamicum (Corynebacterium glutamicum); assay: crystal structure
[2] = molecular target: the molecule itself; assay: crystal structure

- stoichiometry N [1]: 2
Molecule: ArsR As(III)-responsive transcriptional repressor from Corynebacterium glutamicum (natural protein)

B1: ArsR As(III)-responsive transcriptional repressor from Acidithiobacillus ferrooxidans (natural protein)
chain: MEPLQDPAQIVARLEALASPVRLEIFRLLVEQEPTGLVSGDIAEHLGQPHNGISFHLKNLQHAGLVTVQREGRYQRYRAAMPVVRALVAYLTENCCHGTRDCALSGETRSPSVQEGNQ
- stoichiometry N [2]: 2
